Target: FGFR2b
Assay: cell-based or functional assay

“basic fibroblast growth factor (FGF2) (from UniProt P09038 143-288) (ligand)” was tested, and the cell proliferation promoting activity on BaF3 cells forced to express the receptor (in the presence of heparin), relative to FGF1 (fold of the activity of FGF1) was 0.001.
